“And” between values parts separate entries of the source, which are not always exact repeats. Identical values can stand only once. Like-named read-outs stand apart in the source and are kept apart here. Where a SMILES comes first, the peptide text is derived from it. Where no end group is shown, it is not given here. [ ]: non-standard residue; d: D form. The star is where a group is joined. Arg(Me2a) = CN(C)C(=N)NCCC[C@H](N)C(=O)O; Cha = N[C@@H](CC1CCCCC1)C(=O)O; pNA = O=[N+]([O-])c1ccc(N*)cc1 Bounds are passed on as bounds.

Experiment [1] concerns the target T1, human ASIC3 (acid-sensing ion channel 3) (human) (UniProt Q9UHC3).
T1 sequence: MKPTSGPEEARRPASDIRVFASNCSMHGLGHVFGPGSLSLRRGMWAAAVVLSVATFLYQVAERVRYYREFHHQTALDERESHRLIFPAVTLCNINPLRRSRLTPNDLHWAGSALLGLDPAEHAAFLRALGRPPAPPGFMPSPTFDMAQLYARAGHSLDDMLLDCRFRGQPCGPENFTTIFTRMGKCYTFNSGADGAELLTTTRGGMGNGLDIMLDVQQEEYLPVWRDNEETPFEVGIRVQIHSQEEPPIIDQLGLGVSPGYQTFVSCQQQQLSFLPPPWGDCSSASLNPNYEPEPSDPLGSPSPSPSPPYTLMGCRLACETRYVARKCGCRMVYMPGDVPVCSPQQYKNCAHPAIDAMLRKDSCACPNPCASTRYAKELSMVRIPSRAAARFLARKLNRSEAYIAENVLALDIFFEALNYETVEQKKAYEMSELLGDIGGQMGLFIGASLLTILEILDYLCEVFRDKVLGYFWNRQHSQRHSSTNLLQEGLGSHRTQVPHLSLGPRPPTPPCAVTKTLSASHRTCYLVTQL

The target of experiment [2] is human ASIC3 E78Q (human) (UniProt Q9UHC3).
The target in experiment [3] is T2, human ASIC3 (Homo sapiens, UniProt Q9UHC3).
T2 construct: CHO cells stably expressing human ASIC3 (NM_004769.1)
T2 sequence (Q9UHC3 1-531): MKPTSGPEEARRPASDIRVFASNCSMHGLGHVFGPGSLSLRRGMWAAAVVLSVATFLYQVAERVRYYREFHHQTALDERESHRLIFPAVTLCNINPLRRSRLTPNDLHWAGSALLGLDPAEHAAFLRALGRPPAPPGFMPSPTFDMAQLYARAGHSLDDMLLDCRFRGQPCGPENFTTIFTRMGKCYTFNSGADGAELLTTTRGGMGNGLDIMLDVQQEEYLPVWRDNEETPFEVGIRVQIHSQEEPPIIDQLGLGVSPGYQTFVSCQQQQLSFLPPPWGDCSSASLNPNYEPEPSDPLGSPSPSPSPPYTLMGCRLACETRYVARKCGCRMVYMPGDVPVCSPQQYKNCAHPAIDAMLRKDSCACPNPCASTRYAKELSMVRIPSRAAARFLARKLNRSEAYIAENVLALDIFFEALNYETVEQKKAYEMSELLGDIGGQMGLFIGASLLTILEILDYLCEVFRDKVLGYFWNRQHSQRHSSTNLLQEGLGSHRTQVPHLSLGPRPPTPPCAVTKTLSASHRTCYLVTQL
The class given is cell-based. The conditions noted are these: for Mean (I3s/Ipk), arithmetic / Geometric mean (I3s/Ipk): QPatch II; for Mean (I3s/Ipk), arithmetic: CHO cells. On the technique in general: In patch-clamp work, channel activity is measured electrically.

The target of experiment [4] is T2, human ASIC3. The experiment is described as follows: QPatch II peptide concentration-response (I3s/Ipk). It counts as cell-based. Particulars: WT ASIC3, QPatch II, read-out: EC50 (95% CI). As for the experimental part: RFamide peptide activity on ASIC3 was measured on the QPatch II platform (Sophion, Ballerup, Denmark) using either a CHO or HEK stable cell line and analyzed with Sophion Analyzer software (version 5.2). Prior to recording, the cells were washed twice in PBS (Gibco, Paisley, UK) and treated with Detachin (Genlantis, San Diego) for 3 min, then resuspended in their respective growth media without serum for a concentration of 2 × 10^6 cells/ml. A minimum of 5 mL of cells was added to the QStirrer, which was placed on the deck of the QPatch II and allowed to incubate at room temperature for a minimum of 20 min.
The bath solution contained 135 mM NaCl, 5 mM KCl, 4.8 mM CaCl2, 1 mM MgCl2, 10 mM HEPES, 10 mM MES, and 10 mM glucose adjusted to pH 7.4 with NaOH. The intracellular solution contained 65 mM CsF, 65 mM CsCl, 10 mM HEPES, 5 mM EGTA, 1 mM MgCl2, adjusted to pH 7.4 with CsOH. Cells were held at -60 mV and ASIC currents were evoked with 3 s applications of pH 6.3 buffer. Peptides were preincubated for at least 2 min. The extracellular solution was changed by dispensing 5 µL of buffer through the ~1.7 µL recording chamber, with a solution switch time of 100 ms, that exchanges 99% of the solution. Signals were acquired at 1 kHz and low-pass filtered at 300 Hz. Experiments performed on QPatch II are specifically indicated in the text.

In experiment [5] the target is T3, ASIC3 E78Q (Homo sapiens, UniProt Q9UHC3, E78Q).
T3 construct: human ASIC3 (NM_004769.4); P2A-mCherry reporter (C, cleaved yes); expressed in transfected cells; host or cells: CHO cells (85050302, Sigma), transient transfection
T3 sequence (Q9UHC3 1-531 E78Q): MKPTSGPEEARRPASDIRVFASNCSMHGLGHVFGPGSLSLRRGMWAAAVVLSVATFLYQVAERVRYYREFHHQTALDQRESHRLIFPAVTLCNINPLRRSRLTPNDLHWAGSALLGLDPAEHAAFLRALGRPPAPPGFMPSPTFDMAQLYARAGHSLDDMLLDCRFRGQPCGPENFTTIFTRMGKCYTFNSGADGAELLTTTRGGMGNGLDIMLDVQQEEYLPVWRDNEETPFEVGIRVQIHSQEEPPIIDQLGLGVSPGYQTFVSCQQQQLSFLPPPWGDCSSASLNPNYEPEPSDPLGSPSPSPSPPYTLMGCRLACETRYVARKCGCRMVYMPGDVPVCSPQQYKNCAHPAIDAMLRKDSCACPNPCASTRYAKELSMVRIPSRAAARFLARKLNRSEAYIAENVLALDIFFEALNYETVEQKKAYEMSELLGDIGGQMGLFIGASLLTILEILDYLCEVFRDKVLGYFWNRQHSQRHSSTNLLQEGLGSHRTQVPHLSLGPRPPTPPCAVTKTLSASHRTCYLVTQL
Briefly: MPC peptide activity on ASIC3 E78Q mutant (I3s/Ipk, peak current, double mutant cycle). It counts as cell-based. Particulars: read-out: EC50 (95% CI).
Source text: We then asked which of the two WRPRFa arginines interacts with the E78/E421 pair. […] To this end, we used a double mutant cycle approach to identify coupling between site 2 or site 4 of WRPRFa with the E78/E421 pair. In this case, the double mutant cycle experiment compared the change in potency caused by single mutations in either WRPRFa or ASIC3 against the change in potency caused by simultaneous mutations in WRPRFa and ASIC3. A coupling coefficient (Ω) can be calculated by dividing the product of the WT/WRPRFa potency and double mutant potency by the product of the two single mutant potencies.
For peptide concentration-response curves, Bottom was set to 0 and Top was constrained to ≤ 1 for peptides that approached plateau phase or where I3s/Ipk reached 1. […] For activation- or desensitization-pH curves, Bottom was set to 0 and Top constrained to 1.

In experiment [6] the target is T4, ASIC3 E378Q (Homo sapiens, UniProt Q9UHC3, E378Q).
T4 construct: human ASIC3 (NM_004769.4); P2A-mCherry reporter (C, cleaved yes); expressed in transfected cells; host or cells: CHO cells (85050302, Sigma), transient transfection
T4 sequence (Q9UHC3 1-531 E378Q): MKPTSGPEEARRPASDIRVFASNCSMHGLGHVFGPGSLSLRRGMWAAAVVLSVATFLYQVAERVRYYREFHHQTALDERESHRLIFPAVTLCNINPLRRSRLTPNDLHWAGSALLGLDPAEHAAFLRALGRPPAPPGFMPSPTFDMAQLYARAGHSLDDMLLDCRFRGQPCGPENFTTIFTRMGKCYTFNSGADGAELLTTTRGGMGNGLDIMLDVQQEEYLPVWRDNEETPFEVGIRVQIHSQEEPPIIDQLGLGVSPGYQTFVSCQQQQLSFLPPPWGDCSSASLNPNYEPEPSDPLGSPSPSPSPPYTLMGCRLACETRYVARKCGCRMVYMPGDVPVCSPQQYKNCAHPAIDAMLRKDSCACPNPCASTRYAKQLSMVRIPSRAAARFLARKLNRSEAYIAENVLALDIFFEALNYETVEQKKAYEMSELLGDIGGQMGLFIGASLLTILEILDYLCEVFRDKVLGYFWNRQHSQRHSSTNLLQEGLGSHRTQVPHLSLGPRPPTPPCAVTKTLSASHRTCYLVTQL
The experiment is described as follows: MPC peptide activity on ASIC3 E378Q mutant. It counts as cell-based. The conditions noted are these: read-out: EC50 (95% CI). As for the experimental part: (§1) We individually mutated the four glutamates to glutamine to remove their charge but maintain the side chain structure (Fig. 4C). We tested each mutant by incubating HEK cells stably expressing ASIC3 or CHO cells transfected with mutant ASIC3 with 30 µM WRPRFa before a pH 6.3 acid stimulus.
(§2) All mutagenesis was performed at Genscript, and sequences were verified by nanopore sequencing by Plasmidsaurus (Eugene, OR). The numbering of ASIC3 amino acids is based on RefSeq NP_004760.1. Plasmids were transfected into CHO cells using Lipofectamine 3000 (Thermo) according to the manufacturer’s protocol. Cells were used for patch-clamp recordings 24–48 h after transfection.
(§3) CHO and HEK cells were tested in the whole-cell configuration on MPC platforms using an Axopatch 200B amplifier (Axon Instruments, San Jose, CA) and a Digidata 1322A or Digidata 1440A digitizer (Axon) using pClamp 9.2 or 10.7 (Molecular Devices, San Jose, CA), respectively. When testing transfected cells, red fluorescence from the cleaved mCherry reporter was used to identify cells expressing ASIC3, ASIC131, or ASIC313. For cells expressing transfected ASIC1a or ASIC2a, the green signal from the cleaved eGFP reporter was used. All electrophysiology data were analyzed with Clampfit 11.1 (Molecular Devices).

The target in experiment [7] is T5, ASIC3 E416Q (Homo sapiens, UniProt Q9UHC3, E416Q).
T5 construct: human ASIC3 (NM_004769.4); P2A-mCherry reporter (C, cleaved yes); expressed in transfected cells; host or cells: CHO cells (85050302, Sigma), transient transfection
T5 sequence (Q9UHC3 1-531 E416Q): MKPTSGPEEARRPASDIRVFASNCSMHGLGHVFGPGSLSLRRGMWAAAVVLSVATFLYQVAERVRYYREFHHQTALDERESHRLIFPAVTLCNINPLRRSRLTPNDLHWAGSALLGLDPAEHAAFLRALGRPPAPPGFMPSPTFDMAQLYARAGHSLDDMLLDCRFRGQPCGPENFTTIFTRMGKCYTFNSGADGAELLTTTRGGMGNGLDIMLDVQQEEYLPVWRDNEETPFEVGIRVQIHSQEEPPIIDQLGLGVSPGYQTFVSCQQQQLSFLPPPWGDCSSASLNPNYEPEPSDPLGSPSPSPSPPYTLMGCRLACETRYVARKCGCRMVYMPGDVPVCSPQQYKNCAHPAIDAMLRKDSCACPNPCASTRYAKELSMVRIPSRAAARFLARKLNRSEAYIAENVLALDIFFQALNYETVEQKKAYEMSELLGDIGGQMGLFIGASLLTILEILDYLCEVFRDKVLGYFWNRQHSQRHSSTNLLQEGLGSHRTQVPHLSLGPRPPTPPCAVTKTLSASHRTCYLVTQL
Briefly: MPC peptide activity on ASIC3 E416Q mutant (incl. double mutant cycle). The class given is cell-based. Particulars: read-out: EC50 (95% CI). As for the experimental part: as §1, §2, §3

For experiment [8], the target named is T2, human ASIC3. The experiment is described as follows: cell-based.
Experiment [9] addresses T1, human ASIC3 (acid-sensing ion channel 3) (human). The source holds these as a separate data set.
Experiment [10] has the same target. This is another data set of the same source.

With WRP{ADMA}Fa (peptide), the EC50 of I3s/Ipk, escalating peptide before pH 6.3, manual patch clamp in [1] came out at 21.3 µM; in experiment [2], 4.93 µM.
Regarding “RPRF-p-nitroanilide: RPRFa with C-terminal amide replaced by para-nitroanilide (RPRF-pNA)”, in [3], the “I3s/Ipk, SAR - RPRFa - 30 uM” value is 0.4296 and 0.3944 and 0.359 and 0.3858 and 0.3642. In addition, the “Mean (I3s/Ipk), arithmetic” value is 0.387 in experiment [3] (30 µM peptide) and 0.387 ± 0.028 in experiment [3] (30 µM peptide, listed as RPRF-p-na).
For orientation: EC50 means the concentration giving half of the maximal effect. Regarding WIPRF-NH2 [WIPRFa], the EC50 is at least 24 µM in experiment [4], 1.66 µM in [5], 20.8 µM in experiment [6] and 10.3 µM in experiment [7].
In turn, `N=C(N)NCCC[C@H](NC(=O)[C@@H]1CCCN1C(=O)[C@@H](N)CCCNC(=N)N)C(=O)N[C@@H](Cc1ccccc1)C(N)=O` [RPRFa] (H-RPRF-NH2) returned an EC50 in experiment [8] of at least 21.3 µM.
In the case of WRPR{Cha}a (peptide), the EC50 of I3s/Ipk, QPatch II in experiment [9] is 2.33 µM.
Regarding FRPRF-NH2 [FRPRFa], the EC50 in [4] came out at 7.84 µM.
As for `N=C(N)NCCC[C@H](NC(=O)[C@@H]1CCCN1C(=O)[C@H](CCCNC(=N)N)NC(=O)[C@@H](N)Cc1c[nH]c2ccccc12)C(=O)N[C@@H](CC1CCCCC1)C(N)=O` [WRPR{Cha}a] (H-WRPR[Cha]-NH2), the EC50 in experiment [4] was found to be 2.33 µM.
Turning to VRPRFa: site 5 Val (VRPRF-NH2), the “Geometric mean (I3s/Ipk)” value in experiment [3] (3 µM peptide) stood at 0.0213; in [3] (30 µM peptide, pH 6.3) it was 0.157.
“RPRF-COOH: RPRFa without C-terminal amidation (RPRF-OH)”: the “Mean (I3s/Ipk), arithmetic” value was 0.00354 in experiment [3] (3 µM peptide); 0.00339 ± 0.00259 and 0.00339 in experiment [3] (30 µM peptide).
Take WKPRF-NH2 [WKPRFa]: the EC50 in experiment [4] amounted to 9.08 µM.
In the case of `CN(C)C(=N)NCCC[C@H](NC(=O)[C@@H]1CCCN1C(=O)[C@H](CCCNC(=N)N)NC(=O)[C@@H](N)Cc1c[nH]c2ccccc12)C(=O)N[C@@H](Cc1ccccc1)C(N)=O` [WRP{ADMA}Fa] (H-WRP[Arg(Me2a)]F-NH2), the EC50 turned out to be 21.3 µM in experiment [8] and 4.93 µM in [5].
Take “WRPRF-COOH: WRPRFa without C-terminal amidation (WRPRF-OH)”: the “Geometric mean (I3s/Ipk)” value in [3] (3 µM peptide) was determined as 0.0303; in [3] (30 µM peptide, pH 6.3), 0.249.

B1: RPRFa (peptide)
peptide: RPRF-NH2
In experiment [10], B1 displayed an EC50 of I3s/Ipk, RPRFa before a pH 6.3 stimulus, manual patch clamp, HEK cells above 21.3 µM.

For the origin of these results see PMC12738692, “Identification, characterization, and structure-activity relationship of the ASIC3-selective peptide WRPRFa” (Communications Chemistry, 2025).
